From paper PMC3976318

Columns and labels:
[1] = molecular target: HA-MC4R (wild-type melanocortin 4 receptor, 3x HA tagged) (human) (UniProt P32245)
[2] = molecular target: HA-MC4R G34A (novel rare variant, 101G>C) (human) (UniProt P32245)

α-melanocyte stimulating hormone (peptide)
α-MSH EC50 for cAMP production (cAMP immunoassay dose-response, HEK cells stably expressing the receptor, three independent immunoassays) [1]: 0.0411 µM
α-MSH EC50 for cAMP production (cAMP immunoassay dose-response, HEK cells stably expressing the receptor, three independent immunoassays) [2]: 0.043 µM
